Data set [1] addresses T1, Tsal1 (Glossina morsitans morsitans, UniProt D3TS87 23-399).
T1 sequence: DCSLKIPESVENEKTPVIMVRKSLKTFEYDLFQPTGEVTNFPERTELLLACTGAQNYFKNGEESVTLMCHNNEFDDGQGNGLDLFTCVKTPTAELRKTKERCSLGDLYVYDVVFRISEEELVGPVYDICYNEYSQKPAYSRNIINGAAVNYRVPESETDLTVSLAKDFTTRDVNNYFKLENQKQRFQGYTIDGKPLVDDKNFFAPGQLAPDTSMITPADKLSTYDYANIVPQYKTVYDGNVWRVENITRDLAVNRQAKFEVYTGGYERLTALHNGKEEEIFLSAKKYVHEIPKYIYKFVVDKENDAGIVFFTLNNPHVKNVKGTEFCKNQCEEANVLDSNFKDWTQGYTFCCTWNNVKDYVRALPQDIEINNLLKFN
The experiment in a line: SPR. Particulars: SPR (BIAcore), 50 mM sodium acetate pH 4.0, 150 mM NaCl, 3.5 mM EDTA, 0.005% Tween-20, 30 ul/min, Langmuir 1:1 fit; temperature not stated. (SPR reads the build-up and loss of mass on a sensor chip optically.)

For data set [2], the target named is T1, Tsal1. The experiment in a line: SPR; text: 1.03 nM; ka 1.0E+06, kd 1.0E-03; SPR (BIAcore), 50 mM sodium acetate pH 4.0, 150 mM NaCl, 3.5 mM EDTA, 0.005% Tween-20, 30 ul/min, Langmuir 1:1 fit; temperature not stated. The following applies: protein: recombinant; tags: pelB leader (pET22b), His tag implied by Ni-NTA; blunt.

Results on 3 molecules are retold here after PMC3479092, “Tsetse Salivary Gland Proteins 1 and 2 Are High Affinity Nucleic Acid Binding Proteins with Residual Nuclease Activity”.

As usually defined, the Kd is the free concentration of one partner at which half of the binding sites on the other are occupied at equilibrium, for simple one-to-one binding.

dsRNA 121 bp: the Kd with Tsal1 [1] was 2.8 nM. The same measure, in the same setting: under dsDNA 161 bp stands 0.45 nM.

B1: dsDNA 25bp polyA/T (dsDNA)
DNA 1: AAAAAAAAAAAAAAAAAAAAAAAAA
DNA 2: TTTTTTTTTTTTTTTTTTTTTTTTT
With B1, the Kd with Tsal1 [2] was 1 nM.
